Measured values: patent publication US20220144921A1 (US Dept. of Health and Human Services, published 2022)

B1: MAb 3H7A9 (antibody, V domains shown)
VH: EVQLQQSGAELVKPGASVKLSCTASGFNIKDTYMHWVKQRPEQGLEWIGRIDPANGNTQYGPKFQGKATITADTSSNTAYLQLSSLTSEDTAVYYCARGGIFYYYGSSYSYAMDYWGQGTSVTVSS
VL: DIQMTQTTSSLSASLGDRVTISCRASQDISNYLNWYQQKPDGTVTLLIYYTSRLHSGVPSRFSGSGSGTDYSLTISNLEQEDIATYFCQQGNTLPRTFGGGTKLEIK
B2: MAb 8A6F2 (antibody, V domains shown)
VH: DVQLQESGPDLVKPSQSLSLTCTVTGYSITSGYNWHWIRQFPGNKLEWMGYIHYSGGTNYNPSLKSRISITRDTSKNQFFLQLNSVTTEDTATYYCARRTGTVPFAYWGQGTLVTVSA
VL: EIVLTQSPALMAASPGEKVTITCSVSSSISSSNLHWYQQKSETSPKPWIYGTSNLASGVPVRFSGSGSGTSYSLTISSMEAEDAATYYCQQWSSYPLTFGGGTKLEIK
B3: MAb 6D4B10 (antibody, V domains shown)
VH: EVQLQQSGPELVKPGASVKMSCKASGYTFTSYVMHWVKQKPGQGLEWIGYLNPYNDDTKYNEKFKGKATLTSDKSSSTAYMELSSLTSEDSAVYYCAYGPPYALDYWGQGTSVTVSS
VL: QIVLTQSPAIMTASLGERVTMTCTASSSVSSSYLHWYQQKPGSSPKLWIYSTSNLASGVPARFSGSGSGTSYSLTISSMEAEDAATYYCHQYHRSPYTFGGGTKLEIK

These binders were tested against T1, recombinant non-structural protein 1 of DENV2 (Dengue virus serotype 2, UniProt P29990 776-1127) (assay: iELISA, FIG. 4 legend).
T1 construct: domain: NS1; also called rNS1 DENV2
T1 sequence: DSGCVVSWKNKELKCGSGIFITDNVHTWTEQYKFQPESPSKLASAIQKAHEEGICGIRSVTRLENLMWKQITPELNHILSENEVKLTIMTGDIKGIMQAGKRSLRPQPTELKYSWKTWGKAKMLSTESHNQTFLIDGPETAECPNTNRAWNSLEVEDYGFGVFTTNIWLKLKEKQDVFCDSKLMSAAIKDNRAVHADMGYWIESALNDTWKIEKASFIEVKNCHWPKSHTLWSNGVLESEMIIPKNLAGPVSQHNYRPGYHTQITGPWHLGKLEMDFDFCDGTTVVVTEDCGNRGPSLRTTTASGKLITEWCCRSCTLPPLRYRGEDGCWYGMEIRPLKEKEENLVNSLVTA
B1 was tested, and the “OD value (450 nm)” value was less than 0 OD. B2 was tested, and the “OD value (450 nm)” value was less than 0 OD. B3 was tested, and the “OD value (450 nm)” value was less than 0 OD.

Each binder was assayed against T2, recombinant non-structural protein 1 of DENV3 (Dengue virus serotype 3, UniProt Q6YMS4 774-1125) (assay: iELISA, FIG. 4 legend).
T2 construct: domain: NS1; also called rNS1 DENV3
T2 sequence: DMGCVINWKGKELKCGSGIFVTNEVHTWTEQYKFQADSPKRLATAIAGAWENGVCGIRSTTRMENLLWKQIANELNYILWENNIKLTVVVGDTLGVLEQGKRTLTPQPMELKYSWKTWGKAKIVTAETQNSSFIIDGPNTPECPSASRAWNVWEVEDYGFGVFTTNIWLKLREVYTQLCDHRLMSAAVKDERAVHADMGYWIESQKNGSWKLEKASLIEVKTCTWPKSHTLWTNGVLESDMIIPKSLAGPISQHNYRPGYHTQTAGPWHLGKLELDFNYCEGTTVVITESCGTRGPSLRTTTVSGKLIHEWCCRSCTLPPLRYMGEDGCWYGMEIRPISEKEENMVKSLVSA
For B1, the “OD value (450 nm)” value was less than 0 OD. With B2 the “OD value (450 nm)” value was less than 0 OD. B3 was tested, and the “OD value (450 nm)” value was less than 0 OD.

What follows are binders tested against T3, recombinant non-structural protein 1 of West Nile Virus (West Nile Virus, UniProt P06935 788-1139) (assay: iELISA, FIG. 4 legend).
T3 construct: domain: NS1; also called rNS1 WNV
T3 sequence: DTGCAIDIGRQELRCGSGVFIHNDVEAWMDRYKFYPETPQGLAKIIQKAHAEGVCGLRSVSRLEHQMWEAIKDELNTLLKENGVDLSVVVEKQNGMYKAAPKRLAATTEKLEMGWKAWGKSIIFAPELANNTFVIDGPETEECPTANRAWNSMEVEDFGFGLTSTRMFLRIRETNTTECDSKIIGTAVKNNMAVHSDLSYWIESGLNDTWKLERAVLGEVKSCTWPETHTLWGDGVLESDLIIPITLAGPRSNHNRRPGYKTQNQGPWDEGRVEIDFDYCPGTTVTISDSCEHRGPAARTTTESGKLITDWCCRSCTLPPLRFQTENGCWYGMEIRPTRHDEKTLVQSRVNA
In the case of B1, the “OD value (450 nm)” value is reported as less than 0 OD. B2 was tested, and the “OD value (450 nm)” value was less than 0 OD. B3 was tested, and the “OD value (450 nm)” value was less than 0 OD.

What follows are binders tested against T4, recombinant non-structural protein 1 of Yellow Fever Virus (Yellow Fever Virus, UniProt P03314 779-1130) (assay: iELISA, FIG. 4 legend).
T4 construct: domain: NS1; also called rNS1 YFV
With B1 the “OD value (450 nm)” value was less than 0 OD. With B2 the “OD value (450 nm)” value was less than 0 OD. For B3, the “OD value (450 nm)” value was less than 0 OD.

What follows are binders tested against T5, recombinant SUMO protein (small-ubiquitin-like modifier) (assay: iELISA, FIG. 4 legend).
T5 construct: also called SUMO* tag
B1 was tested, and the “OD value (450 nm)” value was less than 0 OD. B2 was tested, and the “OD value (450 nm)” value was less than 0 OD. With B3 the “OD value (450 nm)” value was less than 0 OD.

The binders below were run against T6, recombinant non-structural protein 1 of DENV1 (Dengue virus serotype 1, UniProt P17763 776-1127) (assay: iELISA, FIG. 4 legend).
T6 construct: domain: NS1; also called rNS DENV1; rNS1 DENV1
T6 sequence: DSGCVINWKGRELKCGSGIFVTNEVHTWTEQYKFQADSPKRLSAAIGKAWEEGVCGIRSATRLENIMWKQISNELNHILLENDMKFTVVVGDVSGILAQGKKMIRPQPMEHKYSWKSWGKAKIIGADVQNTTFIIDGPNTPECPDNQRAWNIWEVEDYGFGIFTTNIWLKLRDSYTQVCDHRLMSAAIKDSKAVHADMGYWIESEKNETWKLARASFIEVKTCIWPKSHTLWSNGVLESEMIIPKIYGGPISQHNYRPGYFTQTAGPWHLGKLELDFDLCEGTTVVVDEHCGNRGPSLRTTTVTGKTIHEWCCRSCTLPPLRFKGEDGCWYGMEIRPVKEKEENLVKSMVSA
With B1 the “OD value (450 nm)” value was less than 0 OD. In the case of B2, the “OD value (450 nm)” value is reported as less than 0 OD. For B3, the “OD value (450 nm)” value was less than 0 OD.

The binders below were run against T1, recombinant non-structural protein 1 of … (assay: iELISA on recombinant protein).
B1: no binding. B2: no binding. B3: no binding.

Each binder was assayed against T2, recombinant non-structural protein 1 of … (assay: iELISA on recombinant protein).
B1: no binding. B2: no binding. B3: no binding.

These binders were tested against T3, recombinant non-structural protein 1 of … (assay: iELISA on recombinant protein).
B1: no binding. B2: no binding. B3: no binding.

What follows are binders tested against T4, recombinant non-structural protein 1 of … (assay: iELISA on recombinant protein).
B1: no binding. B2: no binding. B3: no binding.

The binders below were run against T6, recombinant non-structural protein 1 of … (assay: iELISA on recombinant protein).
B1: no binding. B2: no binding. B3: no binding.

What follows are binders tested against T7, native NS1 on the surface of DENV1-infected Vero cells (Dengue virus serotype 1, UniProt P17763 776-1127) (assay: cell-based ELISA on infected Vero cells).
T7 construct: domain: NS1; also called DENV1 (Cell-Based ELISA)
T7 sequence: T6 sequence
B1: no binding. B2: no binding. B3: no binding.

The binders below were run against T8, native NS1 on the surface of DENV2-infected Vero cells (Dengue virus serotype 2, UniProt P29990 776-1127) (assay: cell-based ELISA on infected Vero cells).
T8 construct: domain: NS1; also called DENV2 (Cell-Based ELISA)
T8 sequence: T1 sequence
B1: no binding. B2: no binding. B3: no binding.

Each binder was assayed against T9, native NS1 on the surface of DENV3-infected Vero cells (Dengue virus serotype 3, UniProt Q6YMS4 774-1125) (assay: cell-based ELISA on infected Vero cells).
T9 construct: domain: NS1; also called DENV3 (Cell-Based ELISA)
T9 sequence: T2 sequence
B1: no binding. B2: no binding. B3: no binding.

These binders were tested against T10, native NS1 in culture supernatant of DENV1-infected Vero cells (Dengue virus serotype 1, UniProt P17763 776-1127) (assay: iELISA on Vero cell culture supernatant).
T10 construct: domain: NS1
T10 sequence: T6 sequence
B1: no binding. B2: no binding. B3: no binding.

Each binder was assayed against T11, native NS1 in culture supernatant of DENV2-infected Vero cells (Dengue virus serotype 2, UniProt P29990 776-1127) (assay: iELISA on Vero cell culture supernatant).
T11 construct: domain: NS1
T11 sequence: T1 sequence
B1: no binding. B2: no binding. B3: no binding.

Each binder was assayed against T12, native NS1 in culture supernatant of DENV3-infected Vero cells (Dengue virus serotype 3, UniProt Q6YMS4 774-1125) (assay: iELISA on Vero cell culture supernatant).
T12 construct: domain: NS1
T12 sequence: T2 sequence
B1: no binding. B2: no binding. B3: no binding.
